# In article PMC10899635, “Q586B2 is a crucial virulence factor during the early stages of Trypanosoma brucei infection that is conserved amongst trypanosomatids” (Nature Communications, 2024):
# Target: recombinant Q586B2 protein (Trypanosoma brucei brucei)
# Experiment: SEC; size exclusion chromatography after IMAC; uniform peak of approximately 55 kDa
substance,measurement,value
recombinant Q586B2 protein (natural protein),stoichiometry N,4
